B1: recombinant DBPII-Sal1 (refolded ligand domain, region II, of Plasmodium vivax Duffy binding protein, Sal1 variant) (ligand)
chain: NHAFLQNTVMKNCNYKRKRRERDWDCNTKKDVCIPDRRYQLCMKELTNLVNNTDTNFHRDITFRKLYLKRKLIYDAAVEGDLLLKLNNYRYNKDFCKDIRWSLGDFGDIIMGTDMEGIGYSKVVENNLRSIFGTDEKAQQRRKQWWNESKAQIWTAMMYSVKKRLKGNFIWICKLNVAVNIEPQIYRWIREWGRDYVSELPTEVQKLKEKCDGKINYTDKKVCKVPPCQNACKSYDQWITRKKNQWDVLSNKFISVKNAEKVQTAGIVTPYDILKQELDEFNEVAFENEINKRDGAYIEL
notes: also called recombinant Sal1; rSal1; not shown: C-terminal histidine tag from pET21a+
B2: COS7-expressed PvDBP-RII variant Sal 1 (ligand)
chain: B1 chain
notes: The (mut) plasmid differs from (original) by a PvuII to EcoRI site change; also called DBPII-Sal1 expressed on surface of COS7 cells; pEGFP-Sal 1 (original); not shown: C-terminal GFP tag (pEGFP-N1)

How the values were obtained:
[1] = biological target: T1, Duffy antigen receptor for chemokines (DARC) on Duffy-positive human erythrocytes (human, UniProt Q16570 1-336); experiment: erythrocyte binding assay, Western blot
T1 construct: whole, on cells; also called Duffy blood group antigen; Duffy antigen surface receptor
T1 sequence: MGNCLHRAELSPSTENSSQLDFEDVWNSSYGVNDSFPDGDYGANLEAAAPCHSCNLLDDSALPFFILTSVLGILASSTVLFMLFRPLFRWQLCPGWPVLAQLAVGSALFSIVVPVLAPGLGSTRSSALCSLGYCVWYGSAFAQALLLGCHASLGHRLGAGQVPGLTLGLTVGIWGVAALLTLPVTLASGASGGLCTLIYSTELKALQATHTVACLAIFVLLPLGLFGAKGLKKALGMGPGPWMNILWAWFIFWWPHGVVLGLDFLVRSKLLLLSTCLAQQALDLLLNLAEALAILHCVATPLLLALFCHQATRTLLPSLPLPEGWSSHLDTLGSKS

[2] = biological target: T1, Duffy antigen receptor for chemokines …; experiment: COS7 erythrocyte-binding assay (rosettes)

Binder | binding result [1] | binding result [2]
B1 | binds | –
B2 | – | binds

From US9120869 (UNIVERSITY OF SOUTH FLORIDA A FLORIDA NON PROFIT, dated 2015)
